Measured values from paper PMC9063426, “MAP kinases differentially bind and phosphorylate NOS3 via two unique NOS3 sites” (FEBS Open Bio, 2022).
Where no end group is shown, it is not given here. The star is where a group is joined. Biotin = O=C1N[C@H]2[C@H](CS[C@H]2CCCCC(=O)*)N1

T1: Nitric oxide synthase 3 (NOS3), bovine, full-length (bovine, UniProt P29473 1-1205)
T1 construct: Nitric oxide synthase 3 (endothelial NOS), bovine, heterologously expressed in E. coli; called full-length NOS3 in the abstract and discussion; also called eNOS; endothelial nitric oxide synthase; source: E. coli BL21(DE3), purified
T1 sequence (looked up): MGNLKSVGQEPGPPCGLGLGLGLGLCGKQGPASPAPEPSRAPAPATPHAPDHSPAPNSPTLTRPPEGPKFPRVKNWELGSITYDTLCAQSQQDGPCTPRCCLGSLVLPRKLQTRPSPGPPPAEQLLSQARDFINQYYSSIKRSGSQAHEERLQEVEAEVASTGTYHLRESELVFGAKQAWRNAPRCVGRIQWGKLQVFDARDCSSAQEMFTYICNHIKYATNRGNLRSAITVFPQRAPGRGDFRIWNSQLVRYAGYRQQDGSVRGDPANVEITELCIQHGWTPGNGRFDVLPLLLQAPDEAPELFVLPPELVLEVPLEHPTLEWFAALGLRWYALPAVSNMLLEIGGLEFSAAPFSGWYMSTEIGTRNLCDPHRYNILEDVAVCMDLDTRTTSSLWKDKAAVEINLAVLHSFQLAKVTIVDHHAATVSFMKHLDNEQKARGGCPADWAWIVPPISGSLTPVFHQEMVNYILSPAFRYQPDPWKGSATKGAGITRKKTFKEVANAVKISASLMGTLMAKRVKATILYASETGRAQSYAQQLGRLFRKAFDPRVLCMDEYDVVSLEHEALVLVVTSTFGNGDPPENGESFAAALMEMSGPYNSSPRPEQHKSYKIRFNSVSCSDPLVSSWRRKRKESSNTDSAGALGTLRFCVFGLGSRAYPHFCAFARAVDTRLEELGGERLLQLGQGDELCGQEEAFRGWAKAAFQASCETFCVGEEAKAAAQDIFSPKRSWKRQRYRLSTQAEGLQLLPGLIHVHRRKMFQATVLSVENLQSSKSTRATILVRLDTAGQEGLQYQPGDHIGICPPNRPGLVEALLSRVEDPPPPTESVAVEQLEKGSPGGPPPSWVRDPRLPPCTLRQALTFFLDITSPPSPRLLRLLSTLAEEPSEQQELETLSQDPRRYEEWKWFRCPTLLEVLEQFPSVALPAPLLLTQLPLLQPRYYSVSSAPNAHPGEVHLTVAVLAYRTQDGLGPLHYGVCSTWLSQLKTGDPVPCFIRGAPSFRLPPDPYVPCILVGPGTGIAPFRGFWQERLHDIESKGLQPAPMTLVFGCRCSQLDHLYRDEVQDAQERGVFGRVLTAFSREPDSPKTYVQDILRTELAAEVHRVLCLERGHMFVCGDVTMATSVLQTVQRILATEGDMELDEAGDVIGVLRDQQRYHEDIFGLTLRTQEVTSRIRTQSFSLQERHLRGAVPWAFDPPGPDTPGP

B1: NOS3 NtMAP peptide (N-terminal MAP kinase site), biotinylated (peptide)
peptide: Biotin-CTPRRCLGSLVFPRKLQGRPSPGPPA
modifications: cysteine pairing not given here
notes: Human NOS3, N-terminal MAP kinase (NtMAP) site with the S114 site, unphosphorylated; source: synthetic peptide (Biomatik)
B2: NtMAP peptide (NOS3 N-terminal MAP kinase site) (peptide)
peptide: Biotin-CTPRRCLGSLVFPRKLQGRPSPGPPA
modifications: cysteine pairing not given here
notes: Human NOS3, N-terminal MAP kinase (NtMAP) site with the S114 site; source: synthetic peptide, bought: Biomatik
B3: NOS3 (bovine), full-length (enzyme, UniProt P29473 1-1205, looked up)
chain: T1 sequence (looked up)
notes: Nitric oxide synthase 3 (endothelial NOS), bovine, heterologously expressed; called full-length in the abstract and discussion; also called nitric oxide synthase 3; eNOS; source: E. coli BL21(DE3), purified
B4: Active GST-JNK1α1 (SignalChem), biotinylated (enzyme, UniProt P45983-2 1-384, looked up)
chain: MSRSKRDNNFYSVEIGDSTFTVLKRYQNLKPIGSGAQGIVCAAYDAILERNVAIKKLSRPFQNQTHAKRAYRELVLMKCVNHKNIIGLLNVFTPQKSLEEFQDVYIVMELMDANLCQVIQMELDHERMSYLLYQMLCGIKHLHSAGIIHRDLKPSNIVVKSDCTLKILDFGLARTAGTSFMMTPYVVTRYYRAPEVILGMGYKENVDLWSVGCIMGEMVCHKILFPGRDYIDQWNKVIEQLGTPCPEFMKKLQPTVRTYVENRPKYAGYSFEKLFPDVLFPADSEHNKLKASQARDLLSKMLVIDASKRISVDEALQHPYINVWYDPSEAEAPPPKIPDKQLDEREHTIEEWKELIYKEVMDLEERTKNGVIRGQPSPLAQVQQ
modifications: active (phosphorylated) form; biotinylated by amine crosslinking to NHS-LC-LC-biotin, 5 : 1 molar ratio of biotin to protein
notes: also called c-Jun N-terminal kinase; source: bought: SignalChem (Lot #X561-2)
B5: Active GST-JNK1α1 (SignalChem) (enzyme, UniProt P45983-2 1-384, looked up)
chain: B4 chain
modifications: active (phosphorylated) form, sites not given; biotin by amine crosslinking to NHS-LC-LC-biotin (5:1 biotin to protein)
notes: Biotinylated and held on streptavidin sensors for the NOS3 experiment; also called c-Jun N-terminal kinase; source: bought: SignalChem (JNK1, Lot #X561-2), GST-purified, active
B6: AI peptide (NOS3 autoinhibitory loop site) (peptide)
peptide: Biotin-YKIRFNSISCSDPLVSSWRRKRKESSNTDSA
notes: source: synthetic peptide, bought: Biomatik

Experiments:
Conditions in all cases: both partners purified
[1] = target: p38α, inactive (unphosphorylated), His-purified (UniProt Q16539 1-360); test: BLI; N-terminally biotinylated NOS3 peptides on streptavidin sensors, inactive MAP kinases as analytes (31 to 1000 nM); 25 °C; PBS with 10% glycerol, 0.005% tween, 1 mM DTT; global one-state association-then-dissociation fit
Target sequence in this assay (Q16539 whole entry, the tested form may be a part): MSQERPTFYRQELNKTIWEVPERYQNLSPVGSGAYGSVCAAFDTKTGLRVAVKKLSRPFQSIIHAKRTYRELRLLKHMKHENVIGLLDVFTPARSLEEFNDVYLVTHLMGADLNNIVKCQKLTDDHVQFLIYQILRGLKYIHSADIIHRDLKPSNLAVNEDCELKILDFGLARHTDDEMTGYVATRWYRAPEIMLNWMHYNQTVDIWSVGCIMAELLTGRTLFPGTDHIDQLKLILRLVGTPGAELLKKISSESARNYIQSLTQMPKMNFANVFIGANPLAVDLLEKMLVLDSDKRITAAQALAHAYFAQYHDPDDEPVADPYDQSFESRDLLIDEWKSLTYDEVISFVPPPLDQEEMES

[2] = target: p38α, inactive (unphosphorylated), His-purified (UniProt Q16539 1-360); test: BLI; N-terminally biotinylated NOS3 peptides on streptavidin sensors, inactive MAP kinases as analytes at 31-1000 nM; 25 °C; PBS with 10% glycerol, 0.005% tween, 1 mM DTT; global one-state association-then-dissociation fit
[3] = target: B5; test: BLI; biotinylated active GST-JNK1α1 (or the fusion partner alone as control) on streptavidin sensors, NOS3 as analyte at 25-800 nM; 25 °C; 50 mM Tris pH 7.4, 10 mM NaCl, 10% glycerol, 0.01% Tween-20; global one-state association-then-dissociation fit
[4] = target: T1, Nitric oxide synthase 3 (NOS3), bovine, …; test: BLI; biotinylated active GST-JNK1α1 on streptavidin sensors, NOS3 as analyte (25 to 800 nM); 25 °C; 50 mM Tris pH 7.4, 10 mM NaCl, 10% glycerol, 0.01% Tween-20; global one-state association-then-dissociation fit
[5] = target: B3; test: BLI; biotinylated active GST-JNK1α1 (or the fusion partner alone as control) on streptavidin sensors, NOS3 as analyte at 25-800 nM; 25 °C; 50 mM Tris pH 7.4, 10 mM NaCl, 10% glycerol, 0.01% Tween-20; global one-state association-then-dissociation fit

Binder: B1
- koff [1]: 0.000534 s⁻¹
- kon [1]: 17300 M⁻¹ s⁻¹

Binder: B2
- Kd [2]: 31 nM
- koff [2]: 0.00053 s⁻¹
- kon [2]: 17000 M⁻¹ s⁻¹

Binder: B3
- KD (fit without the 400 nM trace) [3]: 18 nM

Binder: B4
- koff [4]: 6.19e-05 s⁻¹

Binder: B5
- Kd [5]: 15 nM
- koff [5]: 6.2e-05 s⁻¹
- kon [5]: 4110 M⁻¹ s⁻¹

Binder: Biotin-YKIRFNSISCSDPLVSSWRRKRKESSNTDSA (source: synthetic peptide (Biomatik)) [NOS3 AI peptide (autoinhibitory loop site), biotinylated]
- koff [1]: 0.000968 s⁻¹
- kon [1]: 15900 M⁻¹ s⁻¹

Binder: B6
- Kd [2]: 61 nM
- koff [2]: 0.00096 s⁻¹
- kon [2]: 16000 M⁻¹ s⁻¹
